Measured values reported in publication PMC3582359 (Molecular cell, 2012).

Legend:
[1] = biological target: GFP-250, a chimera of GFP with the cytosolic protein p115; assay: co-IP
[2] = biological target: recombinant GRP78 (19-654) Cys420 to Ala mutant (human, UniProt P11021 19-654, Cys420 (Cys to Ala)); assay: cross-linking
[3] = biological target: recombinant GRP78 (19-654) Cys41 to Ala mutant (human, UniProt P11021 19-654, Cys41 (Cys to Ala)); assay: cross-linking

GRP78 (glucose-regulated protein 78), endogenous in mouse embryonic fibroblasts, sequence (P20029 20-655): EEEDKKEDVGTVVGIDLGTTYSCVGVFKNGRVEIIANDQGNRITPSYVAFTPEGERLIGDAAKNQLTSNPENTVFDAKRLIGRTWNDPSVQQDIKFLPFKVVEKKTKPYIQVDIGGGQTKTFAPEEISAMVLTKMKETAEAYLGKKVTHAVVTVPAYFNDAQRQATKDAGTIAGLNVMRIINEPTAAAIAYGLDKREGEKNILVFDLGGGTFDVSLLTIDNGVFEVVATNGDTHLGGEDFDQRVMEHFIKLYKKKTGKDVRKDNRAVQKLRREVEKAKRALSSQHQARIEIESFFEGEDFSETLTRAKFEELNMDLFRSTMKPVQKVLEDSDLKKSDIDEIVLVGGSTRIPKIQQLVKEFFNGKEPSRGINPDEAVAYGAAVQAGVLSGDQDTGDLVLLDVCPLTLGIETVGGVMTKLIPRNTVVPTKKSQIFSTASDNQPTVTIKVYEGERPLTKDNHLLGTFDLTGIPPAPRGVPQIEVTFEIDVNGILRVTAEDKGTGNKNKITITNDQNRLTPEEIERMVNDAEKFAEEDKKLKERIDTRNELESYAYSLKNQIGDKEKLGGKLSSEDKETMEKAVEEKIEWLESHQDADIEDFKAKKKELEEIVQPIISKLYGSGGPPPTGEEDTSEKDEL

fold more GFP-250 interacting with GRP78 in WT MEFs than in NPGPx-/- MEFs [1] [fold]	binding result [2]	binding result [3]	Molecule
3			GRP78 (glucose-regulated protein 78), endogenous in mouse embryonic fibroblasts (from UniProt P20029 20-655) (natural protein)
	binds	binds	oxidized recombinant NPGPx (19-187) (natural protein, human, UniProt Q96SL4 19-187, looked up, single disulfide bond between Cys57 and Cys86) AQQEQDFYDFKAVNIRGKLVSLEKYRGSVSLVVNVASECGFTDQHYRALQQLQRDLGPHHFNVLAFPCNQFGQQEPDSNKEIESFARRTYSVSFPMFSKIAVTGTGAHPAFKYLAQTSGKEPTWNFWKYLVAPDGKVVGAWDPTVSVEEVRPQITALVRKLILLKREDL
